In US20140079706A1 (published 2014):
Residue numbers refer to the chain shown, from its start.

B1: Mab 2F11 (antibody, V domains shown)
VH: QVQLKESGPGLVAPSQSLSITCTVSGFSLTTYDISWIRQSPGKGLEWLGVIWTDGGTNYNSPFMSRLSIRKDNSKSQVFLKMNRLQTDDTAIYYCVRDQRLYFDVWGAGTTVTVSS
VL: NIVMTQSPKSMSMSVGERVTLNCKASEDVNTYVSWYQQQPEQSPKLLIYGASNRYTGVPDRFTGGGSTTDFTLTISSVQAEDLADYFCGQSFSYPTFGTGTKLEIK
notes: Murine monoclonal antibody from hybridoma; also called muMab 2F11
B2: Mab 2E10 (antibody, V domains shown)
VH: QVQLKESGPGLVAPSKSLSITCTVSGSSLDSFDISWIRQSPGKGLEWLGVIWTGGGTNYNSGFMSRLRITKDNSKSQVLLKMNSLQSDDTAIYYCVRDPRLYFDVWGAGTTVTVSS
VL: B1 VL with N22S, N30V, Q39K, E41D, G65S, T68A, F87Y, S91T
notes: Murine monoclonal antibody
B3: Mab 1G10 (antibody, V domains shown)
VH: B1 VH with Q1R, T31S, T53S, D54G, S68R, R70S, N73D, K75R, M82V, Q99L
VL: KIVMTQSPKSMSVSVGERVSLSCKASEDVGTYVSWYQQKPEQSPKLLIYGSSNRYTGVPDRFTGSGSATDFTLTISSVQAEDLADYSCGQSFTYPTFGTGTKLEIK
notes: Murine monoclonal antibody
B4: Mab 2H7 (antibody, V domains shown)
VH: B2 VH with S40P, T70S, L79F, N83S
VL: B1 VL with N22S, N30V, Q39K, G65S, T68A, V78I, F87Y, S91T
notes: Murine monoclonal antibody

Legend:
[1] = biological target: CSF-1R on cynomolgous monocytes (cynomolgous); experiment: cell-based or functional assay
[2] = biological target: T1, human CSF-1R fragment D1-D3 (human, UniProt P07333 20-311); experiment: SPR Biacore T100, 37°C; antibody captured, D1-D3 injected, single cycle kinetics
T1 construct: Subcloned into pCMV-presS-HisAvitag expression vector
T1 sequence (P07333 20-311 limits assumed): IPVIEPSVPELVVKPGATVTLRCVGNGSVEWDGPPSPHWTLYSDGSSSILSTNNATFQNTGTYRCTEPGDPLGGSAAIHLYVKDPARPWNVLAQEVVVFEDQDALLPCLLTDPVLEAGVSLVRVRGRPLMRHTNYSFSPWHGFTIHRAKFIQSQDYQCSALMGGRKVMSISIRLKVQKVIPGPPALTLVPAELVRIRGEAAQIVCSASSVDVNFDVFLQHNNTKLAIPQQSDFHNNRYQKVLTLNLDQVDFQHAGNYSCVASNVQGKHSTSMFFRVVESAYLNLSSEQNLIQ
Protocol: Antibodies against CSF-1R were captured via amine coupled capture molecules. Using the single cycle kinetics five increasing concentrations of human CSF-1R fragment D1-D3 (SEQ ID NO: 66) were injected. Human CSF-1R fragment D1-D3 was subcloned into pCMV-presS-HisAvitag expression vector.
Single Cycle Kinetics was measured at a flow rate of 30 μL/min by five consecutive injections of the analyte with concentrations, c=7.8, 31.25, 125 500 and 2000 nM, without regeneration. Each injection was 30 seconds long and followed by a dissociation phase of 120 Seconds for the first four injections, and finally 1200 seconds for the highest concentration (=last injection).
Kinetic parameters were calculated by using the usual double referencing (control reference: binding of analyte to capture molecule; Flow Cell: subdomain CSF-1R concentration “0” as Blank) and calculation with model ‘titration kinetics 1:1 binding with draft’.

Binder	% inhibition (of survival) = (100% - % survival), cynomolgous monocytes, 5 µg/ml antibody [1] [%]	% survival of cynomolgous monocytes at 5 µg/ml antibody (150 ng/ml huCSF-1, CellTiterGlo) [1] [%]	binding result [2]
B1	96	4	no binding (tested: up to 2000 nM D1-D3)
B2	83	17	no binding (tested: up to 2000 nM D1-D3)
B3	98	2	no binding (tested: up to 2000 nM D1-D3)
B4	92	8	–
